We go through nine molecules from patent US20250027068A1.

This experiment concerns the target pooled human IgG (human). As to the kind of experiment: cell-based or functional assay.

B1: VRT-47 (Fc fusion)
chain: VTSVWTKGVTPPTDFIYGEDVLHAPYKAGQGWYDITKTFNGKDDLLCGAATAGNMLHWWFDQNKEQIENYLKKHPEKQKINFNGEQMFDVKEAIDTKDSQLDSKLFEYFKEKAFPYLSTKHLGVFPDHVIDMFINGYRLSLTNHGPTPVKRGSKDPRGGIFDAVFTRGDQSKLLTNRHDLKNKTLKEISDLIKQELTEGKALGISHTYANVRINHVINLWGADFDAEGNLEAIYVTDSDSNASIGMKKYFVGVNSNGKVAISAKEIEEDNIGAQVLGLFTLSTGQDIWNQTNDKTHTCPPCPAPEAAGAPSVFLFPPKPKDTLMISRTPEVTCVVVDVSHEDPEVKFNWYVDGVEVHNAKTKPREEQQNSTYRVVSVLTVLHQDWLNGKEYKCKVSNKALKAPIEKTISKAKGQPREPQVYTLPPSRDELTKNQVSLTCLVKGFYPSDIAVEWESNGQPENNYKTTPPVLDSDGSFFLYSKLTVDKSRWQQGNVFSCSVMHEALHNHYTQKSLSLSPG
In turn, B1 displayed an Enzyme Activity Endpoint Assay, Fab′2 of 168 ng/µL; an Enzyme Activity Endpoint Assay, Fc of 317 ng/µL; an Enzyme Activity Endpoint Assay, IgG of 253 ng/µL; an Enzyme Activity Endpoint Assay, scIgG of 156 ng/µL.

B2: VRT-49 (Fc fusion)
chain: VTSVWTKGVTPPTNFTYGEDVLHAPYVANQGWYDITKTFNGKDDLLCGAATAGNMLHWWFDQNKEQIENYLKKHPEKQKINFNGEQMFDVKEAIDTKDSQLDSKLFEYFKEKAFPYLSTKHLGVFPDHVIDMFINGYRLSLTNHGPTPVKRGSKDPRGGIFDAVFTRGDQSKLLTNRHDLKNKTLKEISDLIKQELTEGKALGISHTYANVRINHVINLWGADFDAEGNLEAIYVTDSDSNASIGMKKYFVGVNSNGKVAISAKEIEEDNIGAQVLGLFTLSTGQDIWNQTNDKTHTCPPCPAPEAAGAPSVFLFPPKPKDTLMISRTPEVTCVVVDVSHEDPEVKFNWYVDGVEVHNAKTKPREEQQNSTYRVVSVLTVLHQDWLNGKEYKCKVSNKALKAPIEKTISKAKGQPREPQVYTLPPSRDELTKNQVSLTCLVKGFYPSDIAVEWESNGQPENNYKTTPPVLDSDGSFFLYSKLTVDKSRWQQGNVFSCSVMHEALHNHYTQKSLSLSPG
B2 came in with an Enzyme Activity Endpoint Assay, Fab′2 of 135 ng/µL; an Enzyme Activity Endpoint Assay, Fc of 291 ng/µL; an Enzyme Activity Endpoint Assay, IgG of 157 ng/µL; an Enzyme Activity Endpoint Assay, scIgG of 131 ng/µL.

B3: VRT-48 (Fc fusion)
chain: VTSVWTKGVTPPTDFRKIVDGNIAYYHAPYKAGQGWYDITKAFDGGDDLLCGAATAGNMLHWWFDQNKEQIENYLKKHPEKQKINFNGEQMFDVKEAIDTKDSQTNSELFNYFKEKAFPYLSTKHLGVFPDHVIDMFINGYRLSLTNHGPTPVKRGSKDPRGGIFDAVFTRGDQSKLLTNRHDLKNKTLKEISDLIKQELTEGKALGISHTYANVRINHVINLWGADFDAEGNLEAIYVTDSDSNASIGMKKYFVGVNSNGKVAISAKEIEEDNIGAQVLGLFTLSTGQDIWNQTNDKTHTCPPCPAPEAAGAPSVFLFPPKPKDTLMISRTPEVTCVVVDVSHEDPEVKFNWYVDGVEVHNAKTKPREEQQNSTYRVVSVLTVLHQDWLNGKEYKCKVSNKALKAPIEKTISKAKGQPREPQVYTLPPSRDELTKNQVSLTCLVKGFYPSDIAVEWESNGQPENNYKTTPPVLDSDGSFFLYSKLTVDKSRWQQGNVFSCSVMHEALHNHYTQKSLSLSPG
For the molecule B3, the Enzyme Activity Endpoint Assay, Fab′2 was found to be 9 ng/µL; the Enzyme Activity Endpoint Assay, Fc was found to be 222 ng/µL; the Enzyme Activity Endpoint Assay, IgG came out at 134 ng/µL; the Enzyme Activity Endpoint Assay, scIgG was determined as 258 ng/µL.

B4: VRT-39 (Fc fusion)
chain: ITSVWTKGVTPPAKFTQGEDVFHAPYVANQGWYDITKTFNRKDNLLCGAATAGNMLHWWFDQNKEEIEAYLKKHPEKQKIIFGDQELLDVRKVINTKDSQTNSALFNYFKDKAFPNLSARRLGVFPDLVLDMFINGYYLNVYKTQTTDVNRTYQTKDRRGGIFDAVFTRGVQSKLLTERHDFKEKTLKEISDLIKQELTEGKALGLSHTYANVRINHVINLWGADFDSNGNLEAIYVTDSDTRASIGMKKYFVGVNAAGKVAISAKEIKEDNIGAQVLGLFTLSTGQDIWNQTNDKTHTCPPCPAPEAAGAPSVFLFPPKPKDTLMISRTPEVTCVVVDVSHEDPEVKFNWYVDGVEVHNAKTKPREEQQNSTYRVVSVLTVLHQDWLNGKEYKCKVSNKALKAPIEKTISKAKGQPREPQVYTLPPSRDELTKNQVSLTCLVKGFYPSDIAVEWESNGQPENNYKTTPPVLDSDGSFFLYSKLTVDKSRWQQGNVFSCSVMHEALHNHYTQKSLSLSPG
Molecule B4 had an Enzyme Activity Endpoint Assay: Fab′2 of 0 ng/µL, an Enzyme Activity Endpoint Assay: Fc of 27 ng/µL, an Enzyme Activity Endpoint Assay: IgG of 1020 ng/µL and an Enzyme Activity Endpoint Assay: scIgG of 22 ng/µL.

B5: VRT-40 (Fc fusion)
chain: TITSVWTKGVTPPTPEDFRYYNEDVLHAPYVANQGWYDITKTFDGKDNLLCGAATAGNMLHWWFDQNKEEIERYLKKHPEKQKIIFKNQELFDVKAAIDTKDSQTNSKLFNYFRDKAFPGLSARQLGVFPDLVLDMFINGYYLNLGKTQSTDVNRPYQDKDKRGGIFDAVFTRGVQTTLLTARHDLKNKGLNEISDLIKQELTEGKALALSHTYANVRINHVINLWGADFDAEGNLIAIYVTDSDTRASIGMKKYFVGVNANGKVAISAKKIEGDNIGAQVLGLFTLSTGQDIWQKLSDKTHTCPPCPAPEAAGAPSVFLFPPKPKDTLMISRTPEVTCVVVDVSHEDPEVKFNWYVDGVEVHNAKTKPREEQQNSTYRVVSVLTVLHQDWLNGKEYKCKVSNKALKAPIEKTISKAKGQPREPQVYTLPPSRDELTKNQVSLTCLVKGFYPSDIAVEWESNGQPENNYKTTPPVLDSDGSFFLYSKLTVDKSRWQQGNVFSCSVMHEALHNHYTQKSLSLSPG
As to B5, the Enzyme Activity Endpoint Assay: Fab′2 amounted to 63 ng/µL, the Enzyme Activity Endpoint Assay: Fc turned out to be 243 ng/µL, the Enzyme Activity Endpoint Assay: IgG was 167 ng/µL and the Enzyme Activity Endpoint Assay: scIgG stood at 222 ng/µL.

B6: VRT-43 (Fc fusion)
chain: QITSVWTKGVTPPTPEQFRYYNEDVFHAPYTAHQGWYDITKTFDGKDNLLCGAATAGNMLHWWFDQNKTEIEAYLSKHPEKQKIIFKNQELFDLKAAIDTKDSQTNSALFNYFRDKAFPGLSARQLGVFPDLVLDMFINGYYLNVFKTQSTDVNRPYQDKDKRGGIFDAVFTRGVQTTLLTARHDLKNKTLNDISTIIKQELTEGRALALSHTYANVRISHVINLWGADFNAEGNLEAIYVTDSDSRASIGMKKYFVGVNASGKVAISAKKIEGENIGAQVLGLFTLSSGKDIWQKLSDKTHTCPPCPAPEAAGAPSVFLFPPKPKDTLMISRTPEVTCVVVDVSHEDPEVKFNWYVDGVEVHNAKTKPREEQQNSTYRVVSVLTVLHQDWLNGKEYKCKVSNKALKAPIEKTISKAKGQPREPQVYTLPPSRDELTKNQVSLTCLVKGFYPSDIAVEWESNGQPENNYKTTPPVLDSDGSFFLYSKLTVDKSRWQQGNVFSCSVMHEALHNHYTQKSLSLSPG
B6 registered an Enzyme Activity Endpoint Assay, Fab′2 of 0 ng/µL; an Enzyme Activity Endpoint Assay, Fc of 28 ng/µL; an Enzyme Activity Endpoint Assay, IgG of 1010 ng/µL; an Enzyme Activity Endpoint Assay, scIgG of 23 ng/µL.

B7: VRT-38 (Fc fusion)
chain: VTSVWTKGVTPPADFTQGEDVFHAPYVANQGWYDITKTFNRKDNLLCGAATAGNMLHWWFDQNKEYIEAYLKKHPEKQKIIFGDQELLDVRKAINTKGSQKNSELFNYFRDKAFPNLSARRLGVFPDLVLDMFINGYYLNVTKTQTTDVNRTYQEKDKRGGIFDAVFTRGVQSKLLTSRHDFKEKGLKEISDLIKQELTEGKALGLSHTYANVRINHVINLWGADFDSDGNLKAIYVTDSDTRASIGMKKYFVGVNAAGKVAISAKEIKEDNIGAQVLGLFTLSTGQDIWNQTNDKTHTCPPCPAPEAAGAPSVFLFPPKPKDTLMISRTPEVTCVVVDVSHEDPEVKFNWYVDGVEVHNAKTKPREEQQNSTYRVVSVLTVLHQDWLNGKEYKCKVSNKALKAPIEKTISKAKGQPREPQVYTLPPSRDELTKNQVSLTCLVKGFYPSDIAVEWESNGQPENNYKTTPPVLDSDGSFFLYSKLTVDKSRWQQGNVFSCSVMHEALHNHYTQKSLSLSPG
On to B7, for which the Enzyme Activity Endpoint Assay: Fab′2 is 0 ng/µL, the Enzyme Activity Endpoint Assay: Fc was found to be 27 ng/µL, the Enzyme Activity Endpoint Assay: IgG turned out to be 990 ng/µL and the Enzyme Activity Endpoint Assay: scIgG was 20 ng/µL.

B8: VRT-42 (Fc fusion)
chain: QITSVWTKGVTPLTPEQFRYYNEDVIHAPYLANQGWYDITKTFNGKDNLLCGAATAGNMLHWWFDQNKTEIEAYLKKHPEKQKIIFKNQELFDLKAAIDTKDSQTNSQLFNYFRDKAFPGLSARQLGVFPDLVLDMFINGYYLNVFKTQSTDVNRPYQDKDKRGGIFDAVFTRGVQTTLLTARHDLKNKGLNEISTLIKQELTEGKALALSHTYANVRISHVINLWGADFNAEGNLEAIYVTDSDSRASIGMKKYFVGVNAHGKVAISAKKIEGENIGAQVLGLFTLSSGKDIWQKLSDKTHTCPPCPAPEAAGAPSVFLFPPKPKDTLMISRTPEVTCVVVDVSHEDPEVKFNWYVDGVEVHNAKTKPREEQQNSTYRVVSVLTVLHQDWLNGKEYKCKVSNKALKAPIEKTISKAKGQPREPQVYTLPPSRDELTKNQVSLTCLVKGFYPSDIAVEWESNGQPENNYKTTPPVLDSDGSFFLYSKLTVDKSRWQQGNVFSCSVMHEALHNHYTQKSLSLSPG
For the molecule B8, the Enzyme Activity Endpoint Assay, Fab′2 came to 0 ng/µL; the Enzyme Activity Endpoint Assay, Fc was 28 ng/µL; the Enzyme Activity Endpoint Assay, IgG amounted to 985 ng/µL; the Enzyme Activity Endpoint Assay, scIgG was 20 ng/µL.

B9: VRT-44 (Fc fusion)
chain: SQTEDSESLQRLRDIEDFQAEKKKQNVVYTKWLDGVDVKDHDFRKIVDGNIAYYATPLLNGRGFYDINKDFNRDNDKCAAAVAANMFHYWLDRNRDNVDRFLRQNPEKHGIIELPDEQLKLSDFLNTYESDDGYRDKSKLFDFISNNFNKPVWTDKLLDNYINGYAYNYKYGRTIEDSTKNTSKINFFKEVFNEKILTNIHSIRNQNEFSVLLSEALYTGKAIGLSYGPAGLRHSLGHIISVWGADLDADGNVVAIYVTDSDDKKLTIGDERVGLKRYKISTDDEGRLRLTAYEETHNTGGQIRGLWTLDTGKQAWADYFDKTEQTGTDQAEQDKTHTCPPCPAPEAAGAPSVFLFPPKPKDTLMISRTPEVTCVVVDVSHEDPEVKFNWYVDGVEVHNAKTKPREEQQNSTYRVVSVLTVLHQDWLNGKEYKCKVSNKALKAPIEKTISKAKGQPREPQVYTLPPSRDELTKNQVSLTCLVKGFYPSDIAVEWESNGQPENNYKTTPPVLDSDGSFFLYSKLTVDKSRWQQGNVFSCSVMHEALHNHYTQKSLSLSPG
Take B9: the Enzyme Activity Endpoint Assay, Fab′2 came to 0 ng/µL; the Enzyme Activity Endpoint Assay, Fc turned out to be 28 ng/µL; the Enzyme Activity Endpoint Assay, IgG came to 1070 ng/µL; the Enzyme Activity Endpoint Assay, scIgG was 21 ng/µL.
